Experimental data taken from patent US20240025959A1 (UNIVERSITY OF SOUTHERN CALIFORNIA, published 2024).

Experiments:
[1] = target: T1, ATG13 (human, UniProt O75143 1-517, limits assumed); experiment: co-IP and immunoblot in 293T cells, as summed up in the discussion
T1 sequence (looked up): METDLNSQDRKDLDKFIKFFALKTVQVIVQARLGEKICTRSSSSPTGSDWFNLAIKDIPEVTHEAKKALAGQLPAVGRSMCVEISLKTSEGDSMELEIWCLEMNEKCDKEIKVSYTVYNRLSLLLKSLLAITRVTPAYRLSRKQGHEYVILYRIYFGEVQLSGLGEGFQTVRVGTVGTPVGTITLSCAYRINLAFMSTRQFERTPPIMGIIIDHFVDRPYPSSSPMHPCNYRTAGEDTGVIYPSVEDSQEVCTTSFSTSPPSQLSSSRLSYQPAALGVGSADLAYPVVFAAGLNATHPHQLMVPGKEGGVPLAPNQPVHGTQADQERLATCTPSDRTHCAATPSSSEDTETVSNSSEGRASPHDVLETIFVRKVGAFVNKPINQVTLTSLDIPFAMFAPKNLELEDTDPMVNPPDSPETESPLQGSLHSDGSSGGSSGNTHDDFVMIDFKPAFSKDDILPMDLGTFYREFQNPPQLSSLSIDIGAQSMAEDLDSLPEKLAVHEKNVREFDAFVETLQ

[2] = target: T2, FIP200 (human, UniProt Q8TDY2 1-1594); experiment: as above
T2 construct: also called Flag-FIP200; hFIP200

[3] = target: T3, WIPI1 (human, UniProt Q5MNZ9 1-446); experiment: endogenous co-IP; 293T cell lysates immunoprecipitated with antibodies against each protein, immunoblot (FIG. 9D)
T3 sequence (looked up): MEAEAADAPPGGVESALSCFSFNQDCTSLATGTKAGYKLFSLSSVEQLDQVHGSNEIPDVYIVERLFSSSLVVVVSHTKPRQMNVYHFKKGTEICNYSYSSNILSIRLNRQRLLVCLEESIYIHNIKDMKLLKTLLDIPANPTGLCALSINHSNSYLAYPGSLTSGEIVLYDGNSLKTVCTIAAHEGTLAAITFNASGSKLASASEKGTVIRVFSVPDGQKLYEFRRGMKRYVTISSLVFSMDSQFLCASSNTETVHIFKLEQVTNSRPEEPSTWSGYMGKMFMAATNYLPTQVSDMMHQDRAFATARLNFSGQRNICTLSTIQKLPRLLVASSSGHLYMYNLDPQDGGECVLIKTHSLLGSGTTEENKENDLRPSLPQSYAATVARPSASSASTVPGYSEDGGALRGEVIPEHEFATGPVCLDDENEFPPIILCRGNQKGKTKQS
Method: (§1) The secondary antibody (Veriblot for IP detection reagent HRP) that only recognized native IgG but not denatured IgG was applied for immunoblotting of proteins in immunoprecipitates. For immunoprecipitation of Flag-tagged proteins, cell lysates were incubated with anti-Flag beads (Sigma) at 4° C. overnight. The beads were washed four times with RIPA lysis buffer, and immunoprecipitates were eluted with 2×SDS loading buffer. Immunoblotting was performed by loading the samples on SDS-PAGE gels, conducting electrophoresis, transferring the samples to PVDF membranes (Bio-Rad), and then incubating the membranes with the indicated antibodies. For all immunoblots, the LumiGLO Chemiluminescent Substrate System from KPL (Gaithersburg, MD) was used for protein detection.

[4] = target: ERK5 (UniProt Q13164 1-816); experiment: co-IP with anti-Flag beads and immunoblot; 293T cells co-transfected with Flag-Beclin 2 and an HA-tagged plasmid (FIG. 8A)
Method: as §1

[5] = target: T4, ATG9A (human) (human, UniProt Q7Z3C6 1-839); experiment: co-IP with anti-Flag beads and immunoblot; 293T cells co-transfected with HA-Beclin 2 and a Flag-tagged plasmid (FIG. 10A)
T4 construct: Transmembrane protein; co-IP from RIPA lysates; Tagged and endogenous human forms kept under one id; also called Flag-ATG9A; HA-ATG9A
T4 sequence (looked up): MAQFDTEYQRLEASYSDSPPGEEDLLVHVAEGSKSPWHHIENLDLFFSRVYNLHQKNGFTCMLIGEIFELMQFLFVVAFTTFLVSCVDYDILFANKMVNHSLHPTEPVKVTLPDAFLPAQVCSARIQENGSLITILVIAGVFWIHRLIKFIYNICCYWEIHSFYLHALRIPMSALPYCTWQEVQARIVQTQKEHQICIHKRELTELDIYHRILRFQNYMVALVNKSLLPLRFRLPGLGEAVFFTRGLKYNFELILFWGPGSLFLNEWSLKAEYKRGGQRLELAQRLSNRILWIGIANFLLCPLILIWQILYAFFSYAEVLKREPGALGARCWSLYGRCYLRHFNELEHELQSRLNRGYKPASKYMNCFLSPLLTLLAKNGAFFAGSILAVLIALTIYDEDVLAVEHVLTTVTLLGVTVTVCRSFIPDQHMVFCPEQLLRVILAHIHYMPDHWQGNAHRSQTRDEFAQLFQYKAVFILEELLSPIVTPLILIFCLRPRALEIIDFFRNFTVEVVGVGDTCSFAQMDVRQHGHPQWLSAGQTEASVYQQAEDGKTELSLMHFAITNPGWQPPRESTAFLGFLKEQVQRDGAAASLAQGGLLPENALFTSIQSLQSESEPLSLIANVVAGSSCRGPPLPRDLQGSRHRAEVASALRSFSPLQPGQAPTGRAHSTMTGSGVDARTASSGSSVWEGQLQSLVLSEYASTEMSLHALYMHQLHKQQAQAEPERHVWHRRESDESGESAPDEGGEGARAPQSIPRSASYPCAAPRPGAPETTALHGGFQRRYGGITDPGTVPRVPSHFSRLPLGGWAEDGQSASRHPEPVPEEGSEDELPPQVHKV

[6] = target: T5, ULK1 (human, UniProt O75385 1-1050); experiment: co-IP with anti-Flag beads and immunoblot; 293T cells co-transfected with Flag-Beclin 2 and HA-ULK1, complete or starvation medium (FIG. 10B)
T5 construct: also called HA-ULK1
T5 sequence (looked up): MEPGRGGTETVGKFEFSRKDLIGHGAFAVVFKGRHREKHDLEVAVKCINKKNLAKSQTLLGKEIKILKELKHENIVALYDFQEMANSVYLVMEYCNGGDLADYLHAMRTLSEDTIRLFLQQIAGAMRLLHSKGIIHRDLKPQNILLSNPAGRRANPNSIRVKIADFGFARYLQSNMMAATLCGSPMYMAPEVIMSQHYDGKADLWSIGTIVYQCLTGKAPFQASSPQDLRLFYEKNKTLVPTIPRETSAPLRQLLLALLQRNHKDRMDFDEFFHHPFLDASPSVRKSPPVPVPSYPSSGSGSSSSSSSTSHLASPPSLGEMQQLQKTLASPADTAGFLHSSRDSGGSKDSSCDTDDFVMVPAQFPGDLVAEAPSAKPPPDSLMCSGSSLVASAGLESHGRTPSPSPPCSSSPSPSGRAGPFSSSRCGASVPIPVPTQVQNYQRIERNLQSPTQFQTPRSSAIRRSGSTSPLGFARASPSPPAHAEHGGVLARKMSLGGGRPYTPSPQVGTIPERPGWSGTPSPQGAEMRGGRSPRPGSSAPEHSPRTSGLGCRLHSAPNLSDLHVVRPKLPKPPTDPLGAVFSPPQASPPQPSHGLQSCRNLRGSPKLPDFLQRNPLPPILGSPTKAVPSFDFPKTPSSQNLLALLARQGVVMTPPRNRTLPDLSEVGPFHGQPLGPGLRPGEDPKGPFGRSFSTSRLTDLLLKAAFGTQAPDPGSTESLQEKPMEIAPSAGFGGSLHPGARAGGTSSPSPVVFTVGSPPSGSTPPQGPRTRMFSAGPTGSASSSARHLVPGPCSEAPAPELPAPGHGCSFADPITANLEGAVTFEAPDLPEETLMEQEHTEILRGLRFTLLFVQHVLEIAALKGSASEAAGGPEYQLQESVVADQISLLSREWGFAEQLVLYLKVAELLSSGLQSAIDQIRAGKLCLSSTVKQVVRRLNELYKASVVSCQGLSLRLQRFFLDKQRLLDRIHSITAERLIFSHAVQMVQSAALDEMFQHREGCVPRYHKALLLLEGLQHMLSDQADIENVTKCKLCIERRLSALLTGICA
Method: as §1

Sequence of ERK5 (Q13164 whole entry): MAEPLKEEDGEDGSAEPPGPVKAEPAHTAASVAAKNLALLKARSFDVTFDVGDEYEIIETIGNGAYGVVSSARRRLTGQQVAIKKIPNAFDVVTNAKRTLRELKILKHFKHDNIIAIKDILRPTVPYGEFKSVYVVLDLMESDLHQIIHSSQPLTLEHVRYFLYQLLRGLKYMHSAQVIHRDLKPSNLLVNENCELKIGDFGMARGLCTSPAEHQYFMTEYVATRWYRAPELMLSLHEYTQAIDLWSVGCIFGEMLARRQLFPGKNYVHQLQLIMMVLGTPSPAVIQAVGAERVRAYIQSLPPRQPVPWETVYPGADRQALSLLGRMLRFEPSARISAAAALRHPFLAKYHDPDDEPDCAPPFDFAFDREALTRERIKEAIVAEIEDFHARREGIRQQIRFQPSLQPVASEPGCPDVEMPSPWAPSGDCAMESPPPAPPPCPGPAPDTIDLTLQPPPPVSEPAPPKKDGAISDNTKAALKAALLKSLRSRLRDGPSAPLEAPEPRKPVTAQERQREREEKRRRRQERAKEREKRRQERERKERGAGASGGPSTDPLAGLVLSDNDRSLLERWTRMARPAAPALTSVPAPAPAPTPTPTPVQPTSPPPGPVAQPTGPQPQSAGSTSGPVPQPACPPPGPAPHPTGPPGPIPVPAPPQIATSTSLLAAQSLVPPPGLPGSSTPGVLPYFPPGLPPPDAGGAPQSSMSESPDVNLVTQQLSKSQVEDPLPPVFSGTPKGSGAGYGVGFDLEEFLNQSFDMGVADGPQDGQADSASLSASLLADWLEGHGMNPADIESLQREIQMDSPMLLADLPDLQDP
T2 sequence (Q8TDY2 whole entry): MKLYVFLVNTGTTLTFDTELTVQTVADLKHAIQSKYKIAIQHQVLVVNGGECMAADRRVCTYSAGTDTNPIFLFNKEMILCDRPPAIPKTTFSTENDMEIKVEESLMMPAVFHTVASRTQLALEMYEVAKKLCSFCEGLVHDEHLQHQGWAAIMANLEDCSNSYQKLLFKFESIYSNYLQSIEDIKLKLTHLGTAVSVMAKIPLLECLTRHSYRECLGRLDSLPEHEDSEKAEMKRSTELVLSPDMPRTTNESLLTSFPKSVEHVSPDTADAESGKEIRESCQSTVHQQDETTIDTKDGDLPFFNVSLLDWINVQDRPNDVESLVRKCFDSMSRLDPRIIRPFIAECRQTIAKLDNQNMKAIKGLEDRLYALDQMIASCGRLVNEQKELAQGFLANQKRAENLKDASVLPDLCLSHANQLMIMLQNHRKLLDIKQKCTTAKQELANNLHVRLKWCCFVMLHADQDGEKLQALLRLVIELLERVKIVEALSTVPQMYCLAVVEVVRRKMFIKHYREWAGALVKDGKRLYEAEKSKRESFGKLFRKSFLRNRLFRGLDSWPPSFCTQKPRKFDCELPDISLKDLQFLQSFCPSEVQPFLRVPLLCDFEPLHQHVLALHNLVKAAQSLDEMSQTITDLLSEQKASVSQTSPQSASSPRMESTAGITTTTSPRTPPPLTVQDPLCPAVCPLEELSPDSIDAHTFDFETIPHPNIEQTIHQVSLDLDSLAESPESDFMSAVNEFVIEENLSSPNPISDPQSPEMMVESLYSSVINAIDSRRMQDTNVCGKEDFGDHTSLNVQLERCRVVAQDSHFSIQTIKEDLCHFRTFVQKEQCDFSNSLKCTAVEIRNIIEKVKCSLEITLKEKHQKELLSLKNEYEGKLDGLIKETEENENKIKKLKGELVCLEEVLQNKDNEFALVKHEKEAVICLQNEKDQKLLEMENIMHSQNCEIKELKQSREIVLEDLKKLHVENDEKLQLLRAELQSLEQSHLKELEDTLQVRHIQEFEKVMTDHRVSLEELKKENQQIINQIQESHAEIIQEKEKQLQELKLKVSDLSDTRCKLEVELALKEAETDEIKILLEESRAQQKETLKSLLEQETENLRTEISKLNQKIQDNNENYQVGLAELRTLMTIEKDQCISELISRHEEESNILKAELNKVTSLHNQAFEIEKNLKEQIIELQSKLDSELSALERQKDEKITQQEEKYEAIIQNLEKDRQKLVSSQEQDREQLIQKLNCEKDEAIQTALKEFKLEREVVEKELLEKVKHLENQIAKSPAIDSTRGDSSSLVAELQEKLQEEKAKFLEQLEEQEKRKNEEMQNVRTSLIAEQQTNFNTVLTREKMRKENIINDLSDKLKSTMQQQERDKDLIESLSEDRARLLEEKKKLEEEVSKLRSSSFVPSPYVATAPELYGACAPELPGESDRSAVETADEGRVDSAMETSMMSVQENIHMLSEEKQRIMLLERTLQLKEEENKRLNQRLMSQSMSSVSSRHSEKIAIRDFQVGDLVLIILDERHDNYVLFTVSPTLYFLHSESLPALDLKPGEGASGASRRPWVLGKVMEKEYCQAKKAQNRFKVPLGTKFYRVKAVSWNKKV

binding result [1]: no binding
binding result [2]: no binding
binding result [3]: binds
binding result [4]: no binding
binding result [5]: binds
binding result [6]: binds
B1: Beclin 2 (human, full length) (other)
chain: MSSIRFLCQRCHQALKLSGSSESRSLPAAPAPTSGQAEPGDTREPGVTTREVTDAEEQQDGASSRSPPGDGSVSKGHANIFTLLGELGAMHMLSSIQKAAGDIFDIVSGQAVVDHPLCEECTDSLLEQLDIQLALTEADSQNYQRCLETGELATSEDEAAALRAELRDLELEEARLVQELEDVDRNNARAAADLQAAQAEAAELDQQERQHYRDYSALKRQQLELLDQLGNVENQLQYARVQRDRLKEINCFTATFEIWVEGPLGVINNFRLGRLPTVRVGWNEINTAWGQAALLLLTLANTIGLQFQRYRLIPCGNHSYLKSLTDDRTELPLFCYGGQDVFLNNKYDRAMVAFLDCMQQFKEEAEKGELGLSLPYGIQVETGLMEDVGGRGECYSIRTHLNTQELWTKALKFMLINFKWSLIWVASRYQK
notes: All tagged and endogenous human forms are kept under this one id; the form used is named under assay; also called BECN2; Flag-Beclin 2
